Test results reported in publication PMC4005679, “In vitro assembly and activity of an archaeal CRISPR-Cas type I-A Cascade interference complex” (Nucleic Acids Research, 2014).

Experiments:
[1] = target: T1, Cas7 purified via a His-SUMO-tagged fusion protein (Thermoproteus tenax, UniProt G4RJZ1 1-329); experiment: SEC; six co-refolded Cascade subunits, incubated 30 min at 65°C, Superdex 200 10/300; fractions TCA-precipitated and analysed by SDS-PAGE; details: both partners purified
T1 construct: Cas7 of the type I-A Cascade of Thermoproteus tenax Kra1 (genome FN869859), full-length protein; also called Cas7-SUMO; monomeric Cas7; source: E. coli BL21-Gold(DE3)Star pRARE, purified (Ni-NTA, SUMO protease, HiTrap Heparin, Superdex 75)
T1 sequence (looked up): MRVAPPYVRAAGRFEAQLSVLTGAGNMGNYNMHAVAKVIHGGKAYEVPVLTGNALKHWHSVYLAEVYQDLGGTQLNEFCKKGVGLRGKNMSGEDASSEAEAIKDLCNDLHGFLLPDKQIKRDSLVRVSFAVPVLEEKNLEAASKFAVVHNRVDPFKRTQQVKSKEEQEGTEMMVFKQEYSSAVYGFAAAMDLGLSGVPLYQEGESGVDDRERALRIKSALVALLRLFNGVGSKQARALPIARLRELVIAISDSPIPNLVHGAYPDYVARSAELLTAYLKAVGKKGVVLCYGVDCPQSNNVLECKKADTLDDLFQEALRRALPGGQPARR

[2] = target: T2, Cas5a (recombinant, refolded) (Thermoproteus tenax, UniProt G4RJZ2 1-226); experiment: as above; details: both partners purified
T2 construct: Cas5a of the type I-A Cascade of Thermoproteus tenax Kra1 (genome FN869859)
T2 sequence (looked up): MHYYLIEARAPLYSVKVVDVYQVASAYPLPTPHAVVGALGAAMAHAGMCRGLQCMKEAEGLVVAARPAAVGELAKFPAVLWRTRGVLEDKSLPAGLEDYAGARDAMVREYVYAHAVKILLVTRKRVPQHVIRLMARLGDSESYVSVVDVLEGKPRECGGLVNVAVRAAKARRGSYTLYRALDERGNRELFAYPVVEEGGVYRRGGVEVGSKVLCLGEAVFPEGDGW

[3] = target: T3, Cas8a2 (recombinant, refolded) (Thermoproteus tenax, UniProt G4RJZ5 1-361); experiment: as above; details: both partners purified
T3 construct: Cas8a2 of the type I-A Cascade of Thermoproteus tenax Kra1 (genome FN869859)
T3 sequence (looked up): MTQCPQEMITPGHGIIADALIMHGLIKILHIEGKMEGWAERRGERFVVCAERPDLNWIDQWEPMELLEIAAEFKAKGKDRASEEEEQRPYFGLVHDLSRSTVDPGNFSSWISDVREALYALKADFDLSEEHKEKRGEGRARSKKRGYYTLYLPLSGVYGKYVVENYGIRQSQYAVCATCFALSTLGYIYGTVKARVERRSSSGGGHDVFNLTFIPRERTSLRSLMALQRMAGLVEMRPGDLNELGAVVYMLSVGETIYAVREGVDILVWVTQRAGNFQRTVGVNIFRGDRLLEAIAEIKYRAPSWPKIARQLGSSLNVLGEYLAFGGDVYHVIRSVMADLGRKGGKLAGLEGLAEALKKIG

Cas7 = target: T4, Cas7 (Thermoproteus tenax Kra1, UniProt G4RJZ1 1-329); experiment: EMSA; 4 uM Cas7, no competitor; nonspecific, similar shift with yeast RNA; 100 mM HEPES/KOH pH 7, 100 mM NaCl, 10 mM beta-mercaptoethanol, 50 ng yeast RNA, 30 min at 70 C (Cascade; 6% native TBE-PAGE); Cas7 alone without yeast RNA at 80 C, agarose gel; 2-4 nM labeled crRNA; details: protein: recombinant; tags: His-SUMO tag cleaved off; label: 5'-32P (EMSA); unlabeled in SEC; single strand
T4 sequence: T1 sequence (looked up)

B1: Csa5 (recombinant, soluble) (natural protein, Thermoproteus tenax, UniProt G4RJZ0 1-130, looked up)
chain: MESVQLKKEELVERAARSVRPAVHLEMAYDVLDELSRSPEKYPEQLAKLSRIVVKVLNDVEDELEHNPQNEELQKARNRLAAWGGYVAELAKRLEEADDRERIRMVRLFCAMALAPDKLTVELKKLLKGR
notes: Csa5, subunit of the type I-A Cascade of Thermoproteus tenax Kra1 (genome FN869859); source: E. coli Rosetta2(DE3)pLysS, csa5 in pET24a(+), purified (heat precipitation 90°C, Hi Screen Blue FF, MonoQ)
B1: binds [1]; binds [2]; binds [3].

B2: crRNA 5.2 (ssRNA)
RNA: AUUGAAAGCGUUGAUGCGGCCGCGACUGGCUGACUCAGCUAUUACGUUGA
modifications: 5'-OH from hammerhead cleavage before labeling
B2: binds (Cas7).
